{"source": "paper PMC4511217", "about": "(Genes & Development, 2015)", "binders": {"B1": {"name": "Rrs1, full-length (Saccharomyces cerevisiae) (natural protein)", "chain": "MSAEDYKNLPVTVEKPIPVVYDLGNLAAFDSNVLDKNDLDSSNARREEKIKSLTRDNVQLLINQLLSLPMKTTTESVGGTGGQSSVMTLLQLPDPTTDLPREKPLPKAKAMTKWEKFAAKKGIKPKERAGKMIYDEASGEWVPKWGYKGANKKLDDQWLVEVDDKVKGTDNELIDPRTLNRAERKRLVKKNEKQQRRNMKNAL"}, "B2": {"name": "Rpl5 (uL18) within Alb1-TAP purified pre-60S particles (natural protein)", "chain": "MAFQKDAKSSAYSSRFQTPFRRRREGKTDYYQRKRLVTQHKAKYNTPKYRLVVRFTNKDIICQIISSTITGDVVLAAAYSHELPRYGITHGLTNWAAAYATGLLIARRTLQKLGLDETYKGVEEVEGEYELTEAVEDGPRPFKVFLDIGLQRTTTGARVFGALKGASDGGLYVPHSENRFPGWDFETEEIDPELLRSYIFGGHVSQYMEELADDDEERFSELFKGYLADDIDADSLEDIYTSAHEAIRADPAFKPTEKKFTKEQYAAESKKYRQTKLSKEERAARVAAKIAALAGQQ"}, "B3": {"name": "Rrs1 within Alb1-TAP purified pre-60S particles (natural protein)", "chain": "MSAEDYKNLPVTVEKPIPVVYDLGNLAAFDSNVLDKNDLDSSNARREEKIKSLTRDNVQLLINQLLSLPMKTTTESVGGTGGQSSVMTLLQLPDPTTDLPREKPLPKAKAMTKWEKFAAKKGIKPKERAGKMIYDEASGEWVPKWGYKGANKKLDDQWLVEVDDKVKGTDNELIDPRTLNRAERKRLVKKNEKQQRRNMKNAL"}, "B4": {"name": "Rpf2 within Alb1-TAP purified pre-60S particles (natural protein)", "chain": "MIRTVKPKNARAKRALVKREAKLVENVKQALFIPGQSCNKNLHDIMVDLSALKKPDMKRFNRKNDIHPFEDMSPLEFFSEKNDCSLMVLMTSSKKRKNNMTFIRTFGYKIYDMIELMVADNFKLLSDFKKLTFTVGLKPMFTFQGAAFDTHPVYKQIKSLFLDFFRGESTDLQDVAGLQHVISMTIQGDFQDGEPLPNVLFRVYKLKSYKSDQGGKRLPRIELVEIGPRLDFKIGRIHTPSPDMVTEAHKKPKQLEMKTKKNVELDIMGDKLGRIHMGKQDLGKLQTRKMKGLKSKFDQGTEEGDGEVDEDYEDEASYSDDGQEYEEEFVSATDIEPSAKRQKK"}}, "key": {"[1]": {"target": "T1, Rpf2, full-length, N-terminal 6xHis-tagged (Saccharomyces cerevisiae) (Saccharomyces cerevisiae, UniProt P36160 1-344)", "T1 sequence": "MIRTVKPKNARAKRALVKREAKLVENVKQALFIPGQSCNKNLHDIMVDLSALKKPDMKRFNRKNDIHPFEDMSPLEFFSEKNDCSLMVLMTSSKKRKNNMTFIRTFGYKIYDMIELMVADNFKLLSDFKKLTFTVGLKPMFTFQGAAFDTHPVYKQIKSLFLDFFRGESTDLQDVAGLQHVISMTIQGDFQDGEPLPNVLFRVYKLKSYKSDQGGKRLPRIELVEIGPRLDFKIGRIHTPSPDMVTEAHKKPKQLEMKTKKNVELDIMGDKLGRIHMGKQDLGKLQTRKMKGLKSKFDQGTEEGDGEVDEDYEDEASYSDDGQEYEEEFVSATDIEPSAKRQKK", "assay": "SEC + other: SAXS"}, "[2]": {"target": "B4", "assay": "cryo-EM structure"}, "[3]": {"target": "B2", "assay": "cryo-EM structure"}, "[4]": {"target": "T2, Rsa4 ribosome assembly factor within Alb1-TAP purified pre-60S particles (yeast (endogenous in pre-60S particles), UniProt P25382 1-515)", "T2 sequence": "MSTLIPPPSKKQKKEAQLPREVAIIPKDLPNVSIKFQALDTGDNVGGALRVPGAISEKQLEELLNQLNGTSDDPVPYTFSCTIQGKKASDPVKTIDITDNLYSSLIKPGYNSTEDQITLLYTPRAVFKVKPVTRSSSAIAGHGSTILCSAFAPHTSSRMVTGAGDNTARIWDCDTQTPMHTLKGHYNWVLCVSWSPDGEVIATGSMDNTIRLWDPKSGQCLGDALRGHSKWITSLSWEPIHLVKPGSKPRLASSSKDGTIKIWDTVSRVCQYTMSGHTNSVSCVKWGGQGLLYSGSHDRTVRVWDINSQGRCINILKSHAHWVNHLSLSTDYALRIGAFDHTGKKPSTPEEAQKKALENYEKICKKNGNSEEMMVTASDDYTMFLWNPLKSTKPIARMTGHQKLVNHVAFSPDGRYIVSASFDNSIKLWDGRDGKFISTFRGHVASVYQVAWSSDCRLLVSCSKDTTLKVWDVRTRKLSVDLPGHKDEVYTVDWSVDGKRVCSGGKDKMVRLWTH", "assay": "cryo-EM structure"}}, "data": [{"binder": "B1", "values": [{"measurement": "stoichiometry N", "setting": "[1]", "result": 1}]}, {"binder": "B2", "values": [{"measurement": "binding result", "setting": "[2]", "result": "binds"}]}, {"binder": "B3", "values": [{"measurement": "binding result", "setting": "[3]", "result": "binds"}, {"measurement": "binding result", "setting": "[4]", "result": "binds"}]}, {"binder": "B4", "values": [{"measurement": "binding result", "setting": "[4]", "result": "binds"}]}]}
